Results published in patent publication US20190375839A1 (JIANGSU HENGRUI MEDICINE, published 2019).

Target: T1, human TIM-3 full length, overexpressed on CHO-S cells (human, UniProt Q8TDQ0 22-301)
T1 construct: cells fixed with 4% PFA on plates; also called HAVCR2; Tim-3-overexpressing CHO-S cells
Assay: cell-based ELISA on fixed CHO-S cells overexpressing human TIM-3, HRP-labeled secondary antibody, OD450

EC50 (read off the curve): ~0.2 nM
B1: ABTim-3 (antibody, V domains shown)
VH: QVQLQQPGAELVKPGASVKMSCKASGYTFTSYNMHWIKQTPGQGLEWIGDIYPGNGDTSYNQKFKGKATLTADKSSSTVYMQLSSLTSEDSAVYYCARVGGAFPMDYWGQGTSVTVSS
VL: DIVLTQSPASLAVSLGQRATISCRASESVEYYGTSLMQWYQQKPGQPPKLLIYAASNVESGVPARFSGSGSGTDFSLNIHPVEEDDIAIYFCQQSRKDPSTFGGGTKLEIK
